# From US20230167188A1 (BIOLOJIC DESIGN, published 2023)
# T1: recombinant human TNFR2 with 6×his tag (human, UniProt P20333 23-257, limits assumed)
# T1 construct: Bought (Reprokine, Israel); also called TNFR2-His; hTNFR2-His; not shown: 6xHis tag
# T1 sequence (looked up): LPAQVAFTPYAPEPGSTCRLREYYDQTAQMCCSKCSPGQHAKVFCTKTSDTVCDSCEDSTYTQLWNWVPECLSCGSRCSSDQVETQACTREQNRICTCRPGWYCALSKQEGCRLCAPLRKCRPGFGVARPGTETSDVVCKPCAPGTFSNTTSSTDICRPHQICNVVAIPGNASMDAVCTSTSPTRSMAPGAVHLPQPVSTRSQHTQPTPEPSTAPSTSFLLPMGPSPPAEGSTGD
# Molecular target: T1, recombinant human TNFR2 with 6×his tag
# Assay: ELISA, IgG coated, soluble TNFR2-His titrated
# Procedure: (§1) IgG binding affinity to TNFR2 was examined by ELISA. 96 well plates (Greiner Bio-One high binding) were coated with (50 ng/well) of the analyzed antibody and incubated overnight at 4° C. The plates were then washed three times with 300 μl PBS buffer containing 0.05% Tween 20 (PBS-T), blocked with 300μ PBS-T supplemented with 1% to 2% BSA, and incubated for 1 hour at room temperature. Antibodies-coated plates were washed three times with 300 μl PBS-T and incubated with serial dilutions of test ligand hTNFR2-His (Reprokine, Israel) in a final volume of […] for 1-2 hours. Plates were then washed three times with 300 μl PBS-T and incubated with 50 μl anti-HIS-HRP (Santa Cruz Biotechnology, USA, SC-8036HRP) conjugate that was diluted 1:250 in PBS. After an additional wash step of six washes, the reaction was developed with […] tetramethylbenzidine (TMB) reagent (Southern biotech, USA), and stopped with […] 0.5N H₂SO₄. Detection was done on a Synergy LX BioTek (BioTek, USA) plate reader with an absorbance filter set to […]. The binding affinity was determined by fitting the data to a specific binding non-linear regression model on Prisma 8 GraphPad software.
# (§2) To test binding affinity of clones reformatted as IgG1 and IgG1LALA to TNFR2, an ELISA EC₅₀ binding experiment was conducted for each antibody.
row,EC50,Binder
1,66 nM,"BDG30.080 (antibody, human IgG1, kappa, V domains shown, Human IgG1; also called IgG of CID_229) VH: EVQLVESGGGLVQPGGSLRLSCAASGFNIRAMYIHWVRQSPGKGLEWVADIDPTNGDTRYADSVKGRFTISADTSKNTAYLQMNSLRAEDTAIYYCTREGQDGYNAFDKWGQGTLVTVSS VL: DIQMTQSPILLSASVGDRVTITCRASQDVSTAVAWSQQRTNGSPRLLIYSASSLYSGVPSRFSGSRSGTDFTLTISSLQPEDIADYYCQQHRYTPPTFGAGTKVEIKR"

# Molecular target: T1, recombinant human TNFR2 with 6×his tag
# Assay: yeast surface display, TNFR2-His titrated, flow cytometry MFI
# Procedure: To determine the effective concentration₅₀ (EC₅₀) of TNFR2 binding to yeast scFv or Fab clones (EC₅₀— TNFR2 binding), specific clones were labeled at TNFR concentrations ranging from 0.1 nM to 1000 nM and analyzed on an FACS. Median fluorescence intensity (MFI) was determined for each TNFR2 concentration and EC₅₀ (TNFR2 binding) was calculated using Prisma 8 GraphPad (GraphPad, San Diego, USA) software.
row,EC50,Binder
1,1 nM,CID_251 (scFv) scFv: EVQLVQSGAEVKKPGSSVKVSCKASGDTFTSYSFNWVRQAPGQGLEWMGRIITILDDTEYAPHLQGRVTITADKSTSTVYLELRNLRSDDTAVYFCAGVYEGPNSEGSYDDYGFLKHWGQGTLVTVSSDIVMTQSPATLSVSPGERATLSCRASESVANDLAWYQQKPGQVPRLLIYGASTRATGVPARFSGSGSGAEFTLTISSLQSEDFAVYYCQQYANWPPRETFGQGTRLEIK
2,5.2 nM,CID_323 (scFv) scFv: EVQLVQSGPELKKPGASVKVSCKASGYTFTDLGMNWVRQAPGQGLEWMGWINTHTGMPFYADDFKGRFVFSLDTSVSTAYLQISSLKAEDTAVYYCARDHPLGLDYWGQGTLVTVSSDIQVTQSPSSLSASVGDRVTITCITSQSVDVNGVSYLNWYQQKPGKVPKFLIYKASNLRPGVPSRFSGSGSGTDFTLTISSLQPEDVATYYCQQSREDPYTFGQGTKVEIK
3,2.9 nM,CID_325 (scFv) scFv: EVQLVQSGPELKKPGASVKVSCKASGYTFTDLGIGWVRQAPGQGLEWMGWINTHTGEPFYADDFKGRFVFSLDTSVSTAYLQISSLKAEDTAVYYCTRDHPLGLDYWGQGTLVTVSSDIQVTQSPSSLSASVGDRVTITCITSQSVDVNGLSYLNWYQQKPGKVTKFLIYKASNLGSGVPSRFSGSGSGTDFTLTISSLQPEDVATYYCQQSREDPYTFGQGTKVEIK
4,4.5 nM,CID_327 (scFv) scFv: EVQLVQSGPELKKPGASVKVSCKGSGYTFTDLGMGWVRQAPGQGLEWMGWINTQTGEPFYADDFKGRFVFSLDTSVSTAYLQISSLKAEDTAVYYCTRDHPLGLDYWGQGTLVTVSSDIQVTQSPSSLSASVGDRVTITCITSQSVDVAGVSYLNWYQQKPGKVPKFLIHKASNLRSGVPSRFSGSGSGTDFTLTISSLQPEDVATYYCQQAREDPYTFGQGTKVEIK
5,17.7 nM,CID_330 (scFv) scFv: EVQLVQSGPELKKPGASVKVSCKGSGYTFTDLGINWVRQAPGQGLEWMGWINTHTGEPYYADDFKGRFVFSLDTSVSTAYLQISSLKAEDTAVYYCARDHPLGLDYWGQGTLVTVSSDIQVTQSPSSLSASVGDRVTITCITSQSVDVNGVSYMNWYQQKPGKVPKFLIYKAVNLRPGVPSRFSGSGSGTDFTLTISSLQPEDVATYYCQQSREDPYTFGQGTKVEIK
6,5.7 nM,CID_328 (scFv) scFv: EVQLVQSGPELKKPGASVKVSCKGSGYTFTDLGMNWVRQAPGQGLEWMGWINTQTGEPFYADDFKGRFVFSLDTSVSTAYLQISSLKAEDTAVYFCARDHPLGLDYWGQGTLVTVSSDIQVTQSPSSLSASVGDRVTITCITSQSVDVNGVSYLNWYQQKPGKVPKFLIYKASILRSGVPSRFSGSGSGTDFTLTISSLQPEDVATYYCQQSREDPYTFGQGTKVEIK
7,6 nM,CID_326 (scFv) scFv: EVQLVQSGPELKKPGASVKVSCKASGYTFTDLGMNWVRQAPGQGLEWMGWINTHTGKPFYADDFKGRFVFSLDTSVSTAYLQISSLKAEDTAVYYCTRDHPLGLDYWGQGTLVTVSSDIQVTQSPSSLSASVGDRVTITCITSQSVDVNGVSYLNWYQQKPGKVPKFLIYKASNLRSGVPSRFSGSGSGTDFTLTISSLQPEDVATYYCQQSREDPYTFGQGTKVEIK
8,8.6 nM,CID_329 (scFv) scFv: EVQLVQSGPELKKPGASVKVSCKGSGYTFTDLGINWVRQAPGQGLEWMGWINTHTGEPFYADDFKGRFVFSLDTSVSTAYLQISSLKAEDTAVYFCTRDHPLGLDYWGQGTLVTVSSDIQVTQSPSSLSASVGDRVTITCITSQSVDVNGVSYLNWYQQKPGKVPKFLIYKASNLRPGVPSRFSGSGSGTDFTLTISSLQPEDVATYYCQQSREDPYTFGQGTKVEIK
9,3.4 nM,CID_436 (scFv) scFv: DIQMTQSPILLSASVGDRVTITCRASQDVSTAVAWSQQRTNGSPRLLIYSASSLYSGVPSRFSGSRSGTDFTLTISSLQPEDIADYYCQQPTYTPPTFGAGTKVEIKEVQLVESGGGLVQPGGSLRLSCAASGFNIRDTYIHWVRQSPGKGLEWVADIDPDNGDTRYADSVKGRFTISADTSKNTAYLQMNSLRAEDTAIYYCSRDLADGYNAFDRWGQGTLVTVSS
10,1.2 nM,CID_437 (scFv) scFv: DIQMTQSPILLSASVGDRVTITCRASQDVSTAVAWSQQRTNGSPRLLIYSASSLYSGVPSRFSGSRSGTDFTLTISSLQPEDIADYYCQQPPYTPPTFGAGTKVEIKEVQLVESGGGLVQPGGSLRLSCAASGFNIRDTFIHWVRQSPGKGLEWVADIDPDNGDTRYADSVKGRFTISADTSKNTAYLQMNSLRAEDTAIYYCSREGEDGYNAWDLWGQGTLVTVSS

# Molecular target: T1, recombinant human TNFR2 with 6×his tag
# Assay: ELISA, IgG coated, hTNFR2-His titrated, anti-His-HRP
# Procedure: as §1, §2
row,EC50,Binder
1,66.3 nM,"BDG30.080 (antibody, human IgG1, kappa, V domains shown, Human IgG1; also called IgG of CID_229) VH: EVQLVESGGGLVQPGGSLRLSCAASGFNIRAMYIHWVRQSPGKGLEWVADIDPTNGDTRYADSVKGRFTISADTSKNTAYLQMNSLRAEDTAIYYCTREGQDGYNAFDKWGQGTLVTVSS VL: DIQMTQSPILLSASVGDRVTITCRASQDVSTAVAWSQQRTNGSPRLLIYSASSLYSGVPSRFSGSRSGTDFTLTISSLQPEDIADYYCQQHRYTPPTFGAGTKVEIKR"
